Assay results taken from publication PMC6441041.

How the values were obtained:
[1] = biological target: SH1 membrane-associated protein VP12 (haloarchaeal virus SH1); experiment: cryo-EM structure; purified SH1 virions with and without spikes, data merged; icosahedral and block-based/localised reconstruction of the capsid, 3.8 Å; 20 mM Tris-HCl pH 7.2, 1 M NaCl, 10 mM MnCl2
[2] = biological target: SH1 penton protein VP9 (haloarchaeal virus SH1); experiment: cryo-EM structure; asymmetric (C1) localised reconstruction of the whole 5-fold vertex of spike-containing virions, overall 7.2 Å

Row | Substance | stoichiometry N [1] | stoichiometry N [2]
1 | SH1 membrane-associated protein VP12 (natural protein) | 5 | –
2 | SH1 penton protein VP9 (natural protein) | – | 5
